Measurements: patent US10206886B2, “Lipid nanoparticles for wound healing” (Praxis Biopharma Research Institute, priority 2013, dated 2019)

Columns and labels:
db/db mice [1] = experiment: Histological estimation of wound healing: re-epithelization score (Sinha criteria 0-4); assay type: in vivo; settings: 75 μg rhEGF intralesionally (free rhEGF twice a week; rhEGF-MS once), scale 0-4
Balb/C 3T3 fibroblast = experiment: Proliferation assay with rhEGF-loaded nanoparticles (CCK-8); assay type: cell-based; settings: 15 ng/ml rhEGF, after 48 hours and 72 hours, FIG. 1
Description: 24-well plate was used for the proliferation assay. 35000 Balb/C 3T3 fibroblast resuspended in 1 ml of completed culture medium (DMEM supplemented with 10% FCS) were seeded in each well. After 8 hours of incubation, the medium was replaced by 1 ml of 0.2% FCS supplemented DMEM and cells were incubated overnight. Then, medium was replaced by 1 ml of: (i) 0.2% FCS-supplemented DMEM, (ii) 15 ng/ml of free rhEGF in 0.2% FCS-supplemented DMEM, (iii) empty SLN in 0.2% FCS-supplemented DMEM, (iv) 15 ng/ml of rhEGF-loaded SLN (rhEGF-SLN) in 0.2% FCS-supplemented DMEM, (v) empty NLC in 0.2% FCS-supplemented DMEM and (vi) 15 ng/ml of rhEGF-loaded NLC (rhEGF-NLC) in 0.2% FCS-supplemented DMEM.
The cells were cultured under the same conditions for 24 hours, 48 hours and 72 hours. The experiments were performed in triplicate. After the different incubation intervals, 100 μl of CCK-8 (Sigma-Aldrich, Saint Louise, USA) was added to each well (Zhou, Y., Qian, M., Liang, Y., Liu, Y., Yang, X., Jiang, T., Wang, Y., 2011. Effects of Leukemia Inhibitory Factor on Proliferation and Odontoblastic Differentiation of Human Dental Pulp Cells. J. Endod. 37, 819-824). After 4 hours of incubation, absorbance was read at 450 nm and at 650 nm as the reference wavelength. The absorbance was directly proportional to the number of living cells in culture.

Large White pigs [2] = experiment: Histological assessment in pigs: wound maturity and healing quality (Cotran criteria); assay type: in vivo; settings: rhEGF-NLC 20 μg topically, free rhEGF 75 μg intralesionally
Description: (§1) Treatment administration began 24 hours after wound induction (day 1 of the study) to allow primary homeostasis, platelet adhesion and aggregation, and activation of the coagulation cascade. The animals were randomly divided into three groups (n=2): (i) empty NLC, (ii) 20 μg rhEGF-NLC and (iii) 75 μg free rhEGF. Nanoparticles previously resuspended in 150 μl of vehicle (0.5% carboxymethylcellulose in 0.9% saline) were topically administered twice a week by spreading them over the wound bed. Free rhEGF, resuspended in 1 ml of vehicle, was intralesionally administered twice a week.
Complete skin thickness biopsies from the centre of the unhealed wound to the healthy margin (2 mm) were collected using a sterile scalpel. Collected samples were immediately fixed in 4% formalin, embedded in paraffin and excised in 5-μm thick layers. Samples were stained with haematoxilyn-eosin (HE) for morphological observations. Biopsies were collected on day 15 for wounds 1, 2 and 3 and on days 25 and 43 for all of the wounds. On day 36, wound images were taken but no biopsies were collected not to delay wound healing.
Wound healing was determined in terms of the re-epithelization grade by measuring the newly formed epithelia, and wound maturity and healing quality according to the Cotran et al. (2000) criteria.

[3] = rhEGF plasma concentration (systemic absorption), ELISA; assay type: in vivo, pigs; settings: 30 minutes after first dose; free rhEGF 75 μg intralesionally
Description: as §1
In addition, plasma samples from the rhEGF-NLC and free rhEGF treated animals were collected to assess rhEGF systemic absorption. rhEGF detection was performed by ELISA (human EGF ELISA development kit, PeproTech). Samples were drawn when the plasma rhEGF levels were expected to be higher. Thus, samples from the animals treated with rhEGF-NLC were collected on day 1 of the experiment (prior to the treatment administration), 4 hours and 24 hours after administration. Plasma samples from the animals treated with free rhEGF were obtained just after administration and 30 minutes after the first dose. […]

Large White pigs [4] = experiment: In vivo wound healing in pigs, serial analysis of healed wounds (closure above 95%); settings: rhEGF-NLC 20 μg topically, free rhEGF 75 μg intralesionally, twice a week
Source text: All the protocols and procedures used were previously approved by the Institutional Animal Care and Use Committee from the Jesús Usón Minimally Invasive Surgery Centre (JUMISC). Six female Large White pigs, with a mean weight of 26.82±2.90 kg at the beginning of the study, distributed in individual pens of 2.90 m×1.35 m were used. All the animals of the study were randomly distributed in acclimated rooms, where the following housing conditions were established: 12-hour light-dark cycle, temperature between 20 and 25° C., eight air changes per hour with HEPA-filtered ventilation and relative humidity between 50 and 70%. As pen environmental enrichment, hanging chains and chewing rubber toys were installed as chewable elements. After an acclimatization period, the animals were identified by ear tag codes to be included in the study. […]
Wound healing kinetic was determined by measuring the wound closure (percentage of initial wound area closed) on days 1, 15, 25, 36 and 43. The wound area was assessed, in a standardized manner, taken photographs perpendicularly to the wound surface, using the same illumination and placing a transparent plastic sterile ruler next to the wounds to introduce a metric reference in the pictures for further processing. The wound area was calculated using the image software ImageJ (see section 5.3). […]

db/db mice [5] = experiment: Histological estimation of wound healing: inflammation score (Cotran scale 0-4); assay type: in vivo; settings: 75 μg rhEGF intralesionally (free rhEGF twice a week; rhEGF-MS once)
db/db mice [6] = experiment: In vivo wound healing, wound closure (wound area); settings: 75 μg rhEGF intralesionally (free rhEGF twice a week; rhEGF-MS once)

B1: free rhEGF: Non-encapsulated recombinant human epidermal growth factor; 75 μg of lyophilised rhEGF similar to commercialised Heberprot (protein, UniProt P01133 23-1207, looked up)
Pro-epidermal growth factor: PQHWSCPEGTLAGNGNSTCVGPAPFLIFSHGNSIFRIDTEGTNYEQLVVDAGVSVIMDFHYNEKRIYWVDLERQLLQRVFLNGSRQERVCNIEKNVSGMAINWINEEVIWSNQQEGIITVTDMKGNNSHILLSALKYPANVAVDPVERFIFWSSEVAGSLYRADLDGVGVKALLETSEKITAVSLDVLDKRLFWIQYNREGSNSLICSCDYDGGSVHISKHPTQHNLFAMSLFGDRIFYSTWKMKTIWIANKHTGKDMVRINLHSSFVPLGELKVVHPLAQPKAEDDTWEPEQKLCKLRKGNCSSTVCGQDLQSHLCMCAEGYALSRDRKYCEDVNECAFWNHGCTLGCKNTPGSYYCTCPVGFVLLPDGKRCHQLVSCPRNVSECSHDCVLTSEGPLCFCPEGSVLERDGKTCSGCSSPDNGGCSQLCVPLSPVSWECDCFPGYDLQLDEKSCAASGPQPFLLFANSQDIRHMHFDGTDYGTLLSQQMGMVYALDHDPVENKIYFAHTALKWIERANMDGSQRERLIEEGVDVPEGLAVDWIGRRFYWTDRGKSLIGRSDLNGKRSKIITKENISQPRGIAVHPMAKRLFWTDTGINPRIESSSLQGLGRLVIASSDLIWPSGITIDFLTDKLYWCDAKQSVIEMANLDGSKRRRLTQNDVGHPFAVAVFEDYVWFSDWAMPSVMRVNKRTGKDRVRLQGSMLKPSSLVVVHPLAKPGADPCLYQNGGCEHICKKRLGTAWCSCREGFMKASDGKTCLALDGHQLLAGGEVDLKNQVTPLDILSKTRVSEDNITESQHMLVAEIMVSDQDDCAPVGCSMYARCISEGEDATCQCLKGFAGDGKLCSDIDECEMGVPVCPPASSKCINTEGGYVCRCSEGYQGDGIHCLDIDECQLGEHSCGENASCTNTEGGYTCMCAGRLSEPGLICPDSTPPPHLREDDHHYSVRNSDSECPLSHDGYCLHDGVCMYIEALDKYACNCVVGYIGERCQYRDLKWWELRHAGHGQQQKVIVVAVCVVVLVMLLLLSLWGAHYYRTQKLLSKNPKNPYEESSRDVRSRRPADTEDGMSSCPQPWFVVIKEHQDLKNGGQPVAGEDGQAADGSMQPTSWRQEPQLCGMGTEQGCWIPVSSDKGSCPQVMERSFHMPSYGTQTLEGGVEKPHSLLSANPLWQQRALDPPHQMELTQ
modifications: Pro-epidermal growth factor
notes: Non-encapsulated recombinant human epidermal growth factor; 75 μg of lyophilised rhEGF similar to commercialised Heberprot
Re-epithelization score Day 8 (db/db mice [1]): 1.25±0.89
Re-epithelization score Day 16 (db/db mice [1]): 2.71 ± 0.49
Re-epithelization score Day 8 (db/db mice [1]; listed as Free rhEGF): 1.25 ± 0.89
cell proliferation compared with control groups (Balb/C 3T3 fibroblast): greater cell proliferation
extension of inflammatory tissue (Grade 2) (Large White pigs [2]; day 15, FIG. 10A): mainly showed a diffuse acute inflammation
wound maturity and healing quality (healing grade) (Large White pigs [2]; day 25, FIG. 10B): still showed chronic inflammation
rhEGF plasma concentrations [3]: 0.20 ± 0.01 ng/mL
percentage of healed wounds (Large White pigs [4]; day 25): 40%
wound closure state (Large White pigs [4]; day 36): completely closed
Inflammation score Day 16 (db/db mice [5]): 2.75 ± 0.95
Inflammation score Day 8 (db/db mice [5]; listed as Free rhEGF): 1.75 ± 0.71
Inflammation score Day 8 (db/db mice [5]; listed as rhEGF): 2.13±0.64
Wound healing 4th day (db/db mice [6]): 8.42 ± 3.96%
Wound healing 7th day (db/db mice [6]): 19.94 ± 5.21%
Wound healing 11th day (db/db mice [6]): 44.80 ± 2.64%
Wound healing 14th day (db/db mice [6]): 61.83 ± 2.99%
